Laboratory results reported in paper PMC11791078, “RECQ4-MUS81 interaction contributes to telomere maintenance with implications to Rothmund-Thomson syndrome” (Nature Communications, 2025).
Each block holds one binder with its values, some of them ahead of it.

Columns and labels:
GST-MUS81-EME1 complex [1] = biological target: T1, GST-MUS81-EME1 complex (UniProt Q96NY9 1-551; Q96AY2 1-570); test: pull-down; purified GST-MUS81-EME1, GST-MUS81 or GST-MUS81 fragments (5 µg) incubated with MBP-tagged RECQ4 fragments (5 µg) and Glutathione Sepharose 4 Fast Flow beads in 1X K buffer with 150 mM KCl, 0.01% NP40, 1 mM DTT, 30 min, 4 °C; flow-through and bound fractions on SDS-PAGE, Coomassie blue; conditions: both partners purified
T1 construct: MUS81 subunit of the complex encoded by pGEX-6P-1-MUS81-HisEME1; EME1 subunit of the complex encoded by pGEX-6P-1-MUS81-HisEME1; Plasmid was a gift from Dr. Stephen West and Dr. Curtis Harris; the construct is not described further; source: E. coli Rossetta (DE3) pLysS, purified (Glutathione Sepharose, Heparin, MonoS)
T1 sequence (looked up) 1: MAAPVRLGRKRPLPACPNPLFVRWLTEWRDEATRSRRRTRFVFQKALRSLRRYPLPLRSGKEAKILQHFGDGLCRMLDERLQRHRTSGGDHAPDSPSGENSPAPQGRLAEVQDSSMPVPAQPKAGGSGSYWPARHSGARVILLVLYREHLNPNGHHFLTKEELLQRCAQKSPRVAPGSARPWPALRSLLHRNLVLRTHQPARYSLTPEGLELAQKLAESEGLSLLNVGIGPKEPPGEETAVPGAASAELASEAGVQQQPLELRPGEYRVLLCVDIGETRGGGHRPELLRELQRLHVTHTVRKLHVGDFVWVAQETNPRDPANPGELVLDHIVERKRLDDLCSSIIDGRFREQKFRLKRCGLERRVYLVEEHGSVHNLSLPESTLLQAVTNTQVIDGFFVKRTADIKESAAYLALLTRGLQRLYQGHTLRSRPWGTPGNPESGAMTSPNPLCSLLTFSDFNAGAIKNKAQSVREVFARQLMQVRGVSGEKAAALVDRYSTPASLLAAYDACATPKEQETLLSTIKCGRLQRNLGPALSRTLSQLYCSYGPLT
T1 sequence (looked up) 2: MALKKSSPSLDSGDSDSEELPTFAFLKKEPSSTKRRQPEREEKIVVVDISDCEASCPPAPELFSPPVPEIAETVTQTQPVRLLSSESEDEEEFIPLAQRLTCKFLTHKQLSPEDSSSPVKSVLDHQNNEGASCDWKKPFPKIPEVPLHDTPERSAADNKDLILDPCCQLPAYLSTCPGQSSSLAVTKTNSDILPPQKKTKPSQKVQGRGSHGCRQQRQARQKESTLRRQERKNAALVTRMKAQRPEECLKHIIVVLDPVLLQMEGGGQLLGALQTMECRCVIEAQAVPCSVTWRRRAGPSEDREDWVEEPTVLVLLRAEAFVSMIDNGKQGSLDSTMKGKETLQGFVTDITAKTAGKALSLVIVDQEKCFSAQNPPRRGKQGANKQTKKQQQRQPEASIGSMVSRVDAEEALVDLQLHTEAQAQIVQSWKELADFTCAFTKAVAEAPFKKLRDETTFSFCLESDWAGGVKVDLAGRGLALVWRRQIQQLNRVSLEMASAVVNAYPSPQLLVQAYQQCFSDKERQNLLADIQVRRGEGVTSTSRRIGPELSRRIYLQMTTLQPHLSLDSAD

GST-MUS81-EME1 complex [2] = biological target: GST-MUS81-EME1 complex (UniProt Q96NY9)

binding result (GST-MUS81-EME1 complex [1]): binds
B1: MBP-RECQ4 (1-400) (domain or fragment, UniProt O94761 1-400, looked up)
chain: MERLRDVRERLQAWERAFRRQRGRRPSQDDVEAAPEETRALYREYRTLKRTTGQAGGGLRSSESLPAAAEEAPEPRCWGPHLNRAATKSPQSTPGRSRQGSVPDYGQRLKANLKGTLQAGPALGRRPWPLGRASSKASTPKPPGTGPVPSFAEKVSDEPPQLPEPQPRPGRLQHLQASLSQRLGSLDPGWLQRCHSEVPDFLGAPKACRPDLGSEESQLLIPGESAVLGPGAGSQGPEASAFQEVSIRVGSPQPSSSGGEKRRWNEEPWESPAQVQQESSQAGPPSEGAGAVAVEEDPPGEPVQAQPPQPCSSPSNPRYHGLSPSSQARAGKAEGTAPLHIFPRLARHDRGNYVRLNMKQKHYVRGRALRSRLLRKQAWKQKWRKKGECFGGGGATVTTK
notes: RECQ4 residues 1-400; cloned into pMAL-c2x from pET32a-RECQ4-9XHis; also called fragment (1-400); RECQ4 truncation (1-400 aa); source: E. coli BL21(DE3) pLysS, purified (His-Select nickel, amylose, MonoS)

binding result (GST-MUS81-EME1 complex [1]): binds
B2: MBP-RECQ4 (1-492) (domain or fragment, UniProt O94761 1-492, looked up)
chain: MERLRDVRERLQAWERAFRRQRGRRPSQDDVEAAPEETRALYREYRTLKRTTGQAGGGLRSSESLPAAAEEAPEPRCWGPHLNRAATKSPQSTPGRSRQGSVPDYGQRLKANLKGTLQAGPALGRRPWPLGRASSKASTPKPPGTGPVPSFAEKVSDEPPQLPEPQPRPGRLQHLQASLSQRLGSLDPGWLQRCHSEVPDFLGAPKACRPDLGSEESQLLIPGESAVLGPGAGSQGPEASAFQEVSIRVGSPQPSSSGGEKRRWNEEPWESPAQVQQESSQAGPPSEGAGAVAVEEDPPGEPVQAQPPQPCSSPSNPRYHGLSPSSQARAGKAEGTAPLHIFPRLARHDRGNYVRLNMKQKHYVRGRALRSRLLRKQAWKQKWRKKGECFGGGGATVTTKESCFLNEQFDHWAAQCPRPASEEDTDAVGPEPLVPSPQPVPEVPSLDPTVLPLYSLGPSGQLAETPAEVFQALEQLGHQAFRPGQERAVMRI
notes: cloned into pMAL-c2x from pET32a-RECQ4-9XHis; source: E. coli BL21(DE3) pLysS, purified (His-Select nickel, amylose)

stimulation of MUS81-EME1 (0.5 nM) cleavage of 3'-flap DNA (6 nM), 20 min at 37 °C; RECQ4 5, 25 and 50 nM (GST-MUS81-EME1 complex [2]): > 10 fold
B3: RECQ4 (WT), full-length (natural protein)
chain: MERLRDVRERLQAWERAFRRQRGRRPSQDDVEAAPEETRALYREYRTLKRTTGQAGGGLRSSESLPAAAEEAPEPRCWGPHLNRAATKSPQSTPGRSRQGSVPDYGQRLKANLKGTLQAGPALGRRPWPLGRASSKASTPKPPGTGPVPSFAEKVSDEPPQLPEPQPRPGRLQHLQASLSQRLGSLDPGWLQRCHSEVPDFLGAPKACRPDLGSEESQLLIPGESAVLGPGAGSQGPEASAFQEVSIRVGSPQPSSSGGEKRRWNEEPWESPAQVQQESSQAGPPSEGAGAVAVEEDPPGEPVQAQPPQPCSSPSNPRYHGLSPSSQARAGKAEGTAPLHIFPRLARHDRGNYVRLNMKQKHYVRGRALRSRLLRKQAWKQKWRKKGECFGGGGATVTTKESCFLNEQFDHWAAQCPRPASEEDTDAVGPEPLVPSPQPVPEVPSLDPTVLPLYSLGPSGQLAETPAEVFQALEQLGHQAFRPGQERAVMRILSGISTLLVLPTGAGKSLCYQLPALLYSRRSPCLTLVVSPLLSLMDDQVSGLPPCLKAACIHSGMTRKQRESVLQKIRAAQVHVLMLTPEALVGAGGLPPAAQLPPVAFACIDEAHCLSQWSHNFRPCYLRVCKVLRERMGVHCFLGLTATATRRTASDVAQHLAVAEEPDLHGPAPVPTNLHLSVSMDRDTDQALLTLLQGKRFQNLDSIIIYCNRREDTERIAALLRTCLHAAWVPGSGGRAPKTTAEAYHAGMCSRERRRVQRAFMQGQLRVVVATVAFGMGLDRPDVRAVLHLGLPPSFESYVQAVGRAGRDGQPAHCHLFLQPQGEDLRELRRHVHADSTDFLAVKRLVQRVFPACTCTCTRPPSEQEGAVGGERPVPKYPPQEAEQLSHQAAPGPRRVCMGHERALPIQLTVQALDMPEEAIETLLCYLELHPHHWLELLATTYTHCRLNCPGGPAQLQALAHRCPPLAVCLAQQLPEDPGQGSSSVEFDMVKLVDSMGWELASVRRALCQLQWDHEPRTGVRRGTGVLVEFSELAFHLRSPGDLTAEEKDQICDFLYGRVQARERQALARLRRTFQAFHSVAFPSCGPCLEQQDEERSTRLKDLLGRYFEEEEGQEPGGMEDAQGPEPGQARLQDWEDQVRCDIRQFLSLRPEEKFSSRAVARIFHGIGSPCYPAQVYGQDRRFWRKYLHLSFHALVGLATEELLQVAR
